Experimental data: patent US20250163127A1

Assays:
CD28 (human) = CD28 (human) (UniProt P10747); assay: flow cytometry, Jurkat cells (CD28)
CTLA4 (human) = assay: flow cytometry, CHO cells stably expressing CTLA4
PD-L1 (human) = assay: flow cytometry, CHO cells stably expressing PD-L1
Sequence of PD-L1 (human) (chain, as listed by the source): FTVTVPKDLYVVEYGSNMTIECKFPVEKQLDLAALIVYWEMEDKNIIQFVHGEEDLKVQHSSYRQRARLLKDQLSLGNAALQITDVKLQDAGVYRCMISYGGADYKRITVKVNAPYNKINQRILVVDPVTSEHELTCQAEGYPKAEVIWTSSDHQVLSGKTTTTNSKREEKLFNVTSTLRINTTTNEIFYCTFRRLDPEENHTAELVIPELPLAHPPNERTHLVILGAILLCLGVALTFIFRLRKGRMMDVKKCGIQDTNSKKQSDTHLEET

Sequence of CTLA4 (human) (chain, as listed by the source): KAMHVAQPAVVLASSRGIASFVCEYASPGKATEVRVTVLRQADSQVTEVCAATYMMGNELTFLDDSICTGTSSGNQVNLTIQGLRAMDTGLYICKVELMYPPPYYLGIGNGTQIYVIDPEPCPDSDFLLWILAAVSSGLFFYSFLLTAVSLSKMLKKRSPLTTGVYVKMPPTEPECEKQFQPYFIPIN

Row | Binder | Fold change to WT (CD28 (human)) [fold] | MFI at 33.3 nM (CD28 (human)) [MFI] | Fold change to WT CD80 (CTLA4 (human)) [fold] | MFI at 33.3 nM (CTLA4 (human)) [MFI] | Fold change to WT (PD-L1 (human)) [fold] | MFI at 33.3 nM (PD-L1 (human)) [MFI]
1 | CD80 variant A26E/Q33R/E35D/M47L/L85Q/K86E IgV-Fc (Fc fusion) VIHVTKEVKEVATLSCGHNVSVEELEQTRIYWRKDKKMVLTMMSGDLNIWPEYKNRTIFDITNNLSIVILALRPSDEGTYECVVQEYEKDAFKREHLAEVT | 0.04 | 275 | 0.01 | 1280 | 9.56 | 76000
2 | CD80 variant A26E/Q33L/E35D/M47L IgV-Fc (Fc fusion) VIHVTKEVKEVATLSCGHNVSVEELEQTRIYWLKDKKMVLTMMSGDLNIWPEYKNRTIFDITNNLSIVILALRPSDEGTYECVVLKYEKDAFKREHLAEVT | 0.04 | 271 | 0.01 | 1320 | 7.67 | 60900
3 | CD80 variant H18Y/Q33L/E35D/M47I IgV-Fc (Fc fusion) VIHVTKEVKEVATLSCGYNVSVEELAQTRIYWLKDKKMVLTMMSGDINIWPEYKNRTIFDITNNLSIVILALRPSDEGTYECVVLKYEKDAFKREHLAEVT | 0.04 | 295 | 0.03 | 5540 | 6.02 | 47800
4 | CD80 variant Q33L/E35D/M47I/L85Q IgV-Fc (Fc fusion) VIHVTKEVKEVATLSCGHNVSVEELAQTRIYWLKDKKMVLTMMSGDINIWPEYKNRTIFDITNNLSIVILALRPSDEGTYECVVQKYEKDAFKREHLAEVT | 0.04 | 287 | 0.11 | 20500 | 8.05 | 63900
5 | CD80 variant A26E/Q33R/E35D/M47L/L85Q IgV-Fc (Fc fusion) VIHVTKEVKEVATLSCGHNVSVEELEQTRIYWRKDKKMVLTMMSGDLNIWPEYKNRTIFDITNNLSIVILALRPSDEGTYECVVQKYEKDAFKREHLAEVT | 0.03 | 264 | 0.01 | 1280 | 10.3 | 81500
6 | CD80 variant H18Y/E35D/M47L IgV-Fc (Fc fusion) VIHVTKEVKEVATLSCGYNVSVEELAQTRIYWQKDKKMVLTMMSGDLNIWPEYKNRTIFDITNNLSIVILALRPSDEGTYECVVLKYEKDAFKREHLAEVT | 0.66 | 5070 | 1.59 | 284000 | 5.56 | 44200
7 | CD80 variant Q33L/E35D/M47I IgV-Fc (Fc fusion) VIHVTKEVKEVATLSCGHNVSVEELAQTRIYWLKDKKMVLTMMSGDINIWPEYKNRTIFDITNNLSIVILALRPSDEGTYECVVLKYEKDAFKREHLAEVT | 0.04 | 282 | 0.09 | 15900 | 4.7 | 37400
8 | CD80 variant E35D/M47L/L85Q IgV-Fc (Fc fusion) VIHVTKEVKEVATLSCGHNVSVEELAQTRIYWQKDKKMVLTMMSGDLNIWPEYKNRTIFDITNNLSIVILALRPSDEGTYECVVQKYEKDAFKREHLAEVT | 0.08 | 646 | 1.88 | 336000 | 4.18 | 33200
9 | CD80 variant H18Y/A26E/Q33L/E35D/M47L/L85Q IgV-Fc (Fc fusion) VIHVTKEVKEVATLSCGYNVSVEELEQTRIYWLKDKKMVLTMMSGDLNIWPEYKNRTIFDITNNLSIVILALRPSDEGTYECVVQKYEKDAFKREHLAEVT | 0.04 | 272 | 0.01 | 2090 | 9.64 | 76600
10 | CD80 variant A26E/Q33L/E35D/M47L/L85Q IgV-Fc (Fc fusion) VIHVTKEVKEVATLSCGHNVSVEELEQTRIYWLKDKKMVLTMMSGDLNIWPEYKNRTIFDITNNLSIVILALRPSDEGTYECVVQKYEKDAFKREHLAEVT | 0.04 | 274 | 0.01 | 1170 | 7.89 | 62700
11 | CD80 variant Q33K/E35D/M47V/K89E/K93R IgV-Fc (Fc fusion) VIHVTKEVKEVATLSCGHNVSVEELAQTRIYWKKDKKMVLTMMSGDVNIWPEYKNRTIFDITNNLSIVILALRPSDEGTYECVVLKYEEDAFRREHLAEVT | – | 276 | – | – | – | 39100
